± gives the standard error. This sample holds only a part of the variants without activity.
B1: glmS ribozyme (parent)
chain: AUAAAAGCGCCAGAACUACAGAAAUGUAGUUGACGAGGAGGAGGUUUAUCGAAUUUUCGGCGGAUGCCUCCAAA

Variants of: B1
Experiment: self-cleavage kobs at 2500 uM GlcN6P; higher = faster cleavage; RNA array
Conditions: with glucosamine-6-phosphate
How it was run: (§1)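 Weighted Michaelis–Menten fits across concentrations supplied kcat and KM, based on kobs from one- or two-exponential decay fits to normalised per-tile medians. The data came from barcoded ribozyme variants transcribed in situ by E. coli RNA polymerase on sequenced MiSeq chips and tracked at 37 °C by a hybridised Cy3 probe. Glucosamine-6-phosphate (40 μM to 10 mM) in HEPES/KCl/Mg(OAc)2 buffer was flowed in.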

| Variant | self-cleavage kobs at 2500 uM GlcN6P |
| --- | --- |
| AUAAAAGCGCCAGAACUACAGAAAUGUAGUUCACGAGGAGGAGGUUUAUCGAAUUUUCGGCGGAUUCCUACAAA [G32C G66U C70A] | < 1e-05 s⁻¹ |
| AUAAAAGCGCCAGAACUACAGAAAUGUAGUUGACGAGGAGGGGGUUUUUCGAAUUAUCGGCGGAUGCCUCCAAA [A42G A48U U56A] | 0.000146 ± 4.2e-05 s⁻¹ |
| AUAAAAGCGCCAGAACUACAGAAAUGUAGGUGACGAGGAGGAGGUUUAUCGAAUAUUCGGGGGAUGCCUCGAAA [U30G U55A C61G C71G] | 5.45e-05 ± 2.4e-05 s⁻¹ |
| AUAAAAGCGCCAGAACUACAGAAAUGUAGUUGACGAGCAGGAGGUUUAUCGAAUUAUCGGCGGAUGGGUCCAAA [G38C U56A C67G C68G] | 0.000115 ± 4.5e-05 s⁻¹ |
| AUAAAAGCGCCAGAACUACAGAAAUGUAGUUGACGAGAAGGAGGUUUAUCCUAUUUUCGGCAGAUGCCUCCAAA [G38A G51C A52U G62A] | < 1e-05 s⁻¹ |
| AUAAAAGCGCCAGAACUACAGAAAUGUAGUUGACGAGGAGAAGGUUUAUCGACCUUUCGCCGUAUGCCUCCAAA [G41A A53C U54C G60C G63U] | < 1e-05 s⁻¹ |
| AUAAAAGCGCCAGAUCUACAGAAAUGUAGUUGACCAGGAGGAGGUUUAUCGAAUUUUCGGCGGAUGCGUCCAAA [A15U G35C C68G] | < 1e-05 s⁻¹ |
| AUAAAAGCGCCAAAACUACAGAAAUGUAGCUGACGAGGAGGAGGUUUAUCGAAUUUUCAGCGGAUGCCUCCAAA [G13A U30C G59A] | < 1e-05 s⁻¹ |
| AUAAAAGCGCCAGAACUACAGAAAUUUAGUUAACGAGGAGGAGGUUUAUCGAAUUUUCGGCGAAUGCCUCUAAA [G26U G32A G63A C71U] | < 1e-05 s⁻¹ |
| AUAAAAGCGCCAGGACUACAGAAAUGUACUUGACGAGGGGGAGGUUUAUCGAAUUUUCGGCGGAUGCCUCCAAA [A14G G29C A39G] | 0.000197 ± 9.1e-05 s⁻¹ |
| AUAAAAGCGCCAGAAAUACAGAAAUGUAGUUGCCGAGGAGGAGGUUUAUCGAAUUUUCGGCGGAUGCCUCAAAA [C16A A33C C71A] | < 1e-05 s⁻¹ |
| AUAAAAGCGCCAGAACUACAGAAAUGUAGUUGACCAGGAGGAGGUUUGUCUAAUUUGCGUCGGAUGCCUCCAAA [G35C A48G G51U U57G G60U] | < 1e-05 s⁻¹ |
| AUAAACGCGCCAGAACUACAGAAAUGUAGUUAACGAGGAGGAGGUUUAUCGAAUUUUCCGCGGAUGCCUCCAAA [A6C G32A G59C] | < 1e-05 s⁻¹ |
| AUAAAAGCGCCAGAACUACAGAAAUGUAGUUGACGAGGAGGAGGUUUAUCGGAUUUUCGGCGGAUGCUUUCAAA [A52G C68U C70U] | 0.000745 ± 0.00024 s⁻¹ |
| AUAAAAGCGCCAGAACUACAGAAAUGUAGUUUACGAGGAGGAAGUUUAUCGAAUUUUCGGCGGGUGCCUCCAAA [G32U G43A A64G] | < 1e-05 s⁻¹ |
| AUAAAAGCGCCAGAUCUACAGAAAUGUAGUUGACGAGGAGGAGGUUUAUCGAAUGUUUGGCGGAUGCCUGCAAA [A15U U55G C58U C70G] | 6.29e-05 ± 2.7e-05 s⁻¹ |
| AUAAAAGCGCCAGAACUACAGAAAUGUAGUUGACGAGGAGGAGUUAUAUCGAAUUUUCGGCGGAUGCCUCCAAA [G44U U46A] | 0.000112 ± 3.8e-05 s⁻¹ |
| AUAAAAGCGCCAGAACUACAGAAAUGUAGUUCACGAGGUGGAGGUUUAUGGCAUUUACGGCGGUUGCCUCCAAA [G32C A39U C50G A52C U57A A64U] | < 1e-05 s⁻¹ |

| Variant | self-cleavage kobs at 2500 uM GlcN6P |
| --- | --- |
| AUAAAAGCGCCAGGACUACAGAAAUGUAGUUGACGGGGAGGAGGUUUAUCGAAUUUUGGGCGGAUGCCUCCAAA [A14G A36G C58G] | < 1e-05 s⁻¹ |
| AUAAAAGCACCAGAACUACAGAAAUGUAGUUGACGAGGAGGAGUUUUAUCGAAUUUUCGACGGAUGCCUCCAAA [G9A G44U G60A] | < 1e-05 s⁻¹ |
| AUAAAAGCGCCAGAACUACAGAAAUGUAGUUGCCGAGGAGGAGGUUUAUCGAUGUUUCGGCGGAUGCCUCCAAA [A33C A53U U54G] | 0.000173 ± 4.3e-05 s⁻¹ |
| AUAAAAGCGCCAGACCUACAGAAAUGUAGUUUAUGAGGAGGAGGUUUAUCGAAUUUUCGGCGGAUGCCUCCAAA [A15C G32U C34U] | < 1e-05 s⁻¹ |
| AUAAAAGCGCCGGAAUUACAGAAAUGUAGUUGACGAGGAGGAGGUUUAUCGAAUUUUCGGCGGAUGUCUCCAAA [A12G C16U C67U] | 0.000252 ± 5.2e-05 s⁻¹ |
| AUAAAAGCGGCAGAACUACAGAAAUGUAGUUGACGCGGAGGAGGUUUAUCGAAUUUUCGCCGGAUGCCUUCAAA [C10G A36C G60C C70U] | < 1e-05 s⁻¹ |
| AUAAAAGCGCCCUAACUACAGAAAUGUAGCUGACGAGGAGGAGGUUUAUCGAAUUUUCGACGGAUACCUCCAAA [A12C G13U U30C G60A G66A] | < 1e-05 s⁻¹ |
| AUAAAAGCGCCAGAAUUACAGAAAUGUAGUUGAUGAGGAGGAGGUUCAUCGAAUUUUCUGCGGAUGCCUCUAAA [C16U C34U U47C G59U C71U] | < 1e-05 s⁻¹ |
| AUAAAAGCGGGAGAACUACAGAAAUGUAGUUGACGCGCAGGAGGUUUAUCGACUUUUCGUCGGAUGCCUCCAAA [C10G C11G A36C G38C A53C G60U] | < 1e-05 s⁻¹ |
| AUAAAAGCGCCAGAACUACAGAAAUGUAGUUGCCGAAGAGGAGGUUAAUCGAAUUUUCGGCGGAUGCCUCCAAA [A33C G37A U47A] | < 1e-05 s⁻¹ |
| AUAAAAGCGCCAGAACUACAGAAAUGUAGAUGACGAGGAGGAGGUUUAUGGAAUUAUCGGCGGAUGUCUCCAAA [U30A C50G U56A C67U] | 7.78e-05 ± 1.9e-05 s⁻¹ |
| AUAAAAGCGUCAGAGCUACAGAAAUGUAGUAUACGAGGAGGAGGUUUAUCGAAUUUUCGGCGGAGGCCUCCAAA [C10U A15G U31A G32U U65G] | < 1e-05 s⁻¹ |
| AUAAAAGCGCCAGUACUACAGAAAUGUAAUUGACGAGGAUGAGGAUUAUGGAAUUUUCGGCGGAUGCCUCGAAA [A14U G29A G40U U45A C50G C71G] | < 1e-05 s⁻¹ |
| AUAAAAGCGCGAGAUCUACAGAAAUGUAGUUGACGAGGAGGUGGUCUAUCGAAUUUUCGGCGGAUGCCUCCAAA [C11G A15U A42U U46C] | < 1e-05 s⁻¹ |
| AUAAAAGCGCCAGAACUACAGAAAUGUAGUUGACGAUGAGGAGUUUUAUCGAAUUUUCGGCGGAUGCCUGCAAA [G37U G44U C70G] | < 1e-05 s⁻¹ |
| AUAAAAGCGCCCGAACUACAGAAAUGUAGUUGACGAUGAGGAGGUUUAUCGGAUUUUCGGCGGAUGCCUCCAAA [A12C G37U A52G] | < 1e-05 s⁻¹ |
| AUAAAAACGCCAGAACUACAGAAAUGUAGUUGACGAGUAGUAGGUUUAUCGAAUUUUCGGCGGAUGCCUCCAAA [G7A G38U G41U] | < 1e-05 s⁻¹ |

Variants of: B1
Experiment: self-cleavage kobs at 10000 uM GlcN6P; higher = faster cleavage; RNA array
Conditions: with glucosamine-6-phosphate
How it was run: as §1

| Variant | self-cleavage kobs at 10000 uM GlcN6P |
| --- | --- |
| AUAAAAGCGCCAGGACUACAGAAAUGUACUUGACGAGGGGGAGGUUUAUCGAAUUUUCGGCGGAUGCCUCCAAA [A14G G29C A39G] | 0.000412 ± 7.6e-05 s⁻¹ |
| AUAAAAGCGCCAGAACUACAGAAAUGUAGUUGACGAGGAGGAGUUAUAUCGAAUUUUCGGCGGAUGCCUCCAAA [G44U U46A] | 0.000117 ± 2.9e-05 s⁻¹ |
